The values that follow come from PMC11934185.

Test in all cases: LC-MS of Fabs digested from co-expressed IgG
Experiment [1] has as its target ustekinumab heavy chain, CH1 design 1039, knob CH3 (human).
The target of experiment [2] is panitumumab heavy chain, WT CH1, hole CH3 (human).
The target in experiment [3] is ustekinumab heavy chain, WT CH1, knob CH3 (human).
Experiment [4] deals with panitumumab heavy chain, CH1 design 1039, hole CH3 (human).
For experiment [5], the target named is panitumumab heavy chain, CH1 design 1443, hole CH3 (human).
Experiment [6] has as its target panitumumab heavy chain, CH1 design 767, hole CH3 (human).
Experiment [7] deals with panitumumab heavy chain, CH1 design 367, hole CH3 (human).
Experiment [8] addresses panitumumab heavy chain, CH1 design 2529, hole CH3 (human).
For experiment [9], the target named is panitumumab heavy chain, CH1 of designs 1328 and 838 (G166K, T187K), hole CH3 (human).
Experiment [10] has as its target panitumumab heavy chain, CH1 of designs 1148 and 454 (L145S), hole CH3 (human).

On to panitumumab light chain, WT Cκ, for which the % of observed Fabs (co-expressed: m40) in experiment [1] stood at 18%. Moreover, the % of observed Fabs (co-expressed: m3) in experiment [2] came out at 41%; in [3], 21%. Besides, in experiment [2], the % of observed Fabs (co-expressed: m38) amounted to 54%.

For ustekinumab light chain, WT Cκ, the % of observed Fabs (co-expressed: m3) in experiment [4] was 10%. Moreover, the % of observed Fabs (co-expressed: m3) in [2] was determined as 8%. Besides, the % of observed Fabs (co-expressed: m3) in experiment [5] was 8%. In experiment [6], this substance registered a % of observed Fabs (co-expressed: m25) of 10%. Besides, the % of observed Fabs (co-expressed: m13) in experiment [7] came out at 8%. In experiment [3], this substance showed a % of observed Fabs (co-expressed: m7) of 50%, a % of observed Fabs (co-expressed: m17) of 50%, a % of observed Fabs (co-expressed: m21) of 41% and a % of observed Fabs (co-expressed: m23) of 45%. In [3], this substance displayed a % of observed Fabs (co-expressed: m25) of 41%, a % of observed Fabs (co-expressed: m27) of 40%, a % of observed Fabs (co-expressed: m30) of 40% and a % of observed Fabs (co-expressed: m32) of 41%. For the same substance, the % of observed Fabs (co-expressed: m36) in experiment [3] is 45%. Further, the % of observed Fabs (co-expressed: m11) in [8] is 18%. Also, the % of observed Fabs (co-expressed: m17) in experiment [9] is 6%. Besides, the % of observed Fabs (co-expressed: m34) in [10] was found to be 10%.
